Assay results reported in the nanobody polyreactivity screen of Harvey et al. (2022).

Assay: yeast display, Sf9 membrane polyspecificity reagent, FACS + sequencing; frameworks hold sequencing errors
How it was run: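 Polyreactivity labels are assigned by the sorting gate from which each nanobody was recovered. The gates were low and high (top ~1%), set on anti-HA fluorescence for expression and streptavidin fluorescence for reagent binding. Before sorting, galactose-induced (36–48 hours) yeast display cells were stained for 1 hour at 4 °C with 10% biotinylated, detergent-solubilized Sf9 membrane reagent.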

Sequence	polyreactivity (PSR sort gate)
QVQLVESGGGLVQAGGSLRLSCAASGSIIPGYTMGWYRQAPGKERELVAAISRRGGSTYYADSVKGRFTISRDNAKNTVYLQMNSLKPEDTAVYYCAASLWYRISKYDYWGQGTQVTVSS	high polyreactivity
QVQLVESGGGLVQAGGSLRLSCAASGSIIPRNVMGWYRQAPGNERELVAAISRSGGSTSYADSVKGRFTISRDNAKNTVYLQMNSLKPEDTAVYYCKAPWQRYSAPWGQGYNYWGQGTQVTVSS	high polyreactivity
QVQLVESGGGLVQAGGSLRLSCAASGSIIPSYSMGWYRQAPGKERDLVATIGRGGTTNYADSVKGRFTISLDNAKNTVYLQMNSLKPEDTAVYYCYAERIWRYKYGYDYWGQGSQVTVSS	high polyreactivity
QVQLVESGGGLVQAGGSLRLSCAASGSIIPVYAMGWDRQAPGKVRQLVAAISSRGGRTYYADSVKGRFKISRDNAKNTVYLQMNSLKPEDTAVYYCASVYATYYRLPSQYDYWGQGTQVTVSS	low polyreactivity
QVQLVESGGGLVQAGGSLRLSCAASGSIIRKYAMGCYRPAPGKERELVAAITSGGRTYYADSVKGRFTISRDNAKNTVYLQMNSLKPEDTAVYYCNARVRGYYEYNYWGQGTQVTVSS	high polyreactivity
QVQLVESGGGLVQAGGSLRLSCAASGSIIRKYAMGWYRQAHGKERELVAAISRRTGNTYYADSVKGRFTISRDNAKNTVYLQMNSLKPEDTAVYYCAADYYSSSSWSEVDSWGQGTQVTVSS	high polyreactivity
QVQLVESGGGLVQAGGSLRLSCAASGSIISFYAMGWYRQAPGKEREMVAVISDIGGSTYYADSVKGRFTISRDNAKNTDYLEMNSLKPEDTAVYYCAAGCHARTWYAYYYWGQGTQVTVSS	low polyreactivity
QVQLVESGGGLVQAGGSLRLSCAASGSIISGNVMGWYRQAPGKEREFVATISWRGGNTYYADSVKGRFTISRDNAKNTVYLQMNSLKPEETAVYDCATRRLYSKSWYYYWGQGTQVTVSS	high polyreactivity
QVQLVESGGGLVQAGGSLRLSCAASGSIISPNAMGWYRQAPGKERELVATISFSGGRTYYADSVKGLVTISRDNAKNTVYLQMNSLKPEDTAVYYCAKAYYYTDMDYWGQGTQVTVSS	low polyreactivity
QVQLVESGGGLVQAGGSLRLSCAASGSIISRNAMGWYRQAPGKEREFVAAITRSGGSTSYADSVKGRFTISRDNAKSTVYLQMNSLKPEDTAVYYCAAAQKYRKEFDSWGQGTQVTVSS	high polyreactivity
QVQLVESGGGLVQAGGSLRLSCAASGSIITDYAMGWYRQAPGKERELVATITDSGGSTYYADSVKGRFTISRDNAKNTVYLQMNSLKPEDTAVYYCAADRIHSVTRYDYDYWGQGTQVTVSS	low polyreactivity
QVQLVESGGGLVQAGGSLRLSCAASGSIITGYAMGWYRQAPGKERELVAAITGNAGSTYYADSVKGRFTISRDNAKNTVYLQMNSLKPEDTAVYYCNARSWYVRGDYWGQGTQVTVSS	low polyreactivity
QVQLVESGGGLVQAGGSLRLSCAASGSIITVNAMGWYRQAPGKEREFVAGITSIGGRTYYADSVMGRFTISRDNAKNTVYLQMYSLKPEDTAVYYCNKRSYRARYDYWGQGTQVTVSS	high polyreactivity
QVQLVESGGGLVQAGGSLRLSCAASGSIITYYAMGGYRQAPGKERELVAGISARGGSTRYADSVKGRFTISRDNAKNTVYLQMNSLKPEDTAVYYCAADSRTNGYDYWGQGTQVTVSS	high polyreactivity
QVQLVESGGGLVQAGGSLRLSCAASGSIIVRYAMGWYRQAPGKDRELVATITFRDTSTYYADSEKGRFTISRDNAKNTVYLQMNSLKPEDTAVYYCAAVRAVLWDIARYDYWGQGSQVTVSS	low polyreactivity
QVQLVESGGGLVQAGGSLRLSCAASGSIIVRYAMGWYRQAPGKERELVATITFRDTSTYYADSVKGRFTISRDNAKNTVYLQMNRLIPEDTAVYYCAAVRADLWDIARYDYWGQGTQVTVSS	low polyreactivity
QVQLVESGGGLVQAGGSLRLSCAASGSIIVWNAMGWYRQAPGKERELVASITSGASTYYADSVKGRFTISRDNAKNTVYLQINSLKPEDTAVYYCAADPWYVAYLLDGYGMDYWGQGTLVTVSS	low polyreactivity
QVQLVESGGGLVQAGGSLRLSCAASGSIIWFYAMGWYRQAPGKEWELVAAISGSDTSTYYADSVKGRFTISRDNAKNTVYLQMNSLKPEDTSVYYCAADDGTTFGYGYWGQGTQVTVSS	low polyreactivity
QVQLVESGGGLVQAGGSLRLSCAASGSIIYIYAMGWYRQAPGKERELVAAISSGDRTNYADSVKGRFTISRDNAKNTVYLQMNSLKPEDTAVYYCAAERKNKYDYWGQGTQVTVSS	high polyreactivity
QVQLVESGGGLVQAGGSLRLSCAASGSIIYLYAMGWYRQAPGKEREFVAAITWRGASTYYADSVKGRFTISRYNAKNTVYLQMNSLKPEDTAVYYCAAKLPRVYGYGFDYWGQGTQVTVSS	low polyreactivity
QVQLVESGGGLVQAGGSLRLSCAASGSIIYSYAMGWYRQAPGKERELVAAISTSAGTTYYADSVKGRFTISRDNAKNTVYLQMNSLKPEDTAVYYCATQVWSHKYWYYYWGQGTQVTVSS	high polyreactivity
QVQLVESGGGLVQAGGSLRLSCAASGSIIYYYAMGWYRQAPGKERELVASITRGGSTYYADSVKGRFTISRDNAKNTVYLQMNSLKPEDTAVYYCNADLGAYVPYDYWGQGTQVTVSS	high polyreactivity

Sequence	polyreactivity (PSR sort gate)
QVQLVESGGGLVQAGGSLRLSCAASGSILAGYAMGWYRQAPGKERELVAAISGGGGSTYYADSVKGRFTISRDNAKNTVYLQMNSLKPEDTAVYYCAAQDTYYGLFSYWIPWSGYWGQGTQVTVSS	high polyreactivity
QVQLVESGGGLVQAGGSLRLSCAASGSILARYAMGWYRPAPGKERELVAAISSRGGSTYYADSVKGRFTISRDNAKNTVYLEINSLKPEDTAVYSCAAYVYLQVEYDYWGHGTQVTVSS	low polyreactivity
QVQLVESGGGLVQAGGSLRLSCAASGSILAYNAMGWYRQAPGKERELVAAISWTGRTYYADSVKGRFTISRDNAKNTVYLQMNSLKPEDTAVYYCNARGRQRSRGSQIYDYWGQGSQVTVSS	high polyreactivity
QVQLVESGGGLVQAGGSLRLSCAASGSILDGYAMGWYIQAPGKARELVAAITTGGGSTYYADSVKGRFTISRDNAKNTVYLQMNSLKPEDTAVYYCAAYRKPGSWTWWVRGYGYWVQGTQVTVSS	low polyreactivity
QVQLVESGGGLVQAGGSLRLSCAASGSILDRYVMGWYRQAPGNGRELVSAITWSGSRTYYADSVKGRFTISRDNAKNTVYLQMNSLKPEDTAVYYCAKVIRRSSTLGNHYYWGQGTQVTVSS	high polyreactivity
QVQLVESGGGLVQAGGSLRLSCAASGSILEGNAMGWYRQAPGKERELVASISGDGSTNYADSVKGRFTISRDNAKNTVYLQMNSLKPEDTAVYYCAARYGRIHWKANWPEYGYWGQGTQVTVSS	low polyreactivity
QVQLVESGGGLVQAGGSLRLSCAASGSILFLNAMGWYSQAPGKERELVASITDSGGGTYYADSVKGRFTISRDNAKNTVYLQMNSLKPEDTAVYYCNARSRRPDDYWGQGTQVTVSS	low polyreactivity
QVQLVESGGGLVQAGGSLRLSCAASGSILFNNAMGWYRQAPGKEWELVAAMGANGGNTYYADSVKGRFTISCDNATNTVYLQMTSLKPEDTAVYYCSADKTLYGGGAWTRWFHYTYGYWGQGTQVTVSS	high polyreactivity
QVQLVESGGGLVQAGGSLRLSCAASGSILFRYGMGWYRQAPGKERELVAAINSGGSTYADSVKGRFTISRDNAKNTVYLQMNSLKPEDTAVYYCAKVAWQAHGGPGEFDYWGQGTQVTVSS	low polyreactivity
QVQLVESGGGLVQAGGSLRLSCAASGSILFYNAMGWYRQAPGKERELVAAISSGGSTYYADSVKGRFTISRDNAKNTVYLQMNSLKPEDTAVYNCAARRRYSSVYYYYTTRRGYWGQGTQVTVSS	high polyreactivity
QVQLVESGGGLVQAGGSLRLSCAASGSILGGNAMGWYRQAPGKERELVAAITFSGGGTYYADSVKGRFTISRDNGKNTVYLQMNSLKPEDTALYNCAADKDGYTYEFDYWGQGTQVTVSS	low polyreactivity
QVQLVESGGGLVQAGGSLRLSCAASGSILGGNAMGWYRQAPGKEWELVAAITFSGGGTYYADSVKGRFTSSRDNAKNTVYLQMNSLKPEDTAVYYCAADKDGYTYEFDYWGQGTQVTVSS	low polyreactivity
QVQLVESGGGLVQAGGSLRLSCAASGSILGHYAMGWYRQAPGKERELVAAISWSGGSTYYADSVKGRFTISRDNAKNTVYLQMNSLKPEDTAVYYCNAYLSPKQPLSPPDPTFEGGYWGQGTQVTVSS	low polyreactivity
QVQLVESGGGLVQAGGSLRLSCAASGSILGRYAMGWYRQAPGKERELVAAITSSGGRTYYADSVKGRFTISRDNAKNSVYLQMNSLKPEDTAVYYCAARYGRRLVWVPALLYDYWGQGTQVTVSS	high polyreactivity
QVQLVESGGGLVQAGGSLRLSCAASGSILGTYAMGWYRQAPGKERDLVAAISSSGRTSYADSVKGRFTISRDNAKNTVYLQMNSLKPEDTAVYFCNKVTSYYVFYTPYYSWGQGTQVTVSS	low polyreactivity
QVQLVESGGGLVQAGGSLRLSCAASGSILGTYAMGWYRQAPGKERELVAAISASGRTSYADSEKGRFTISRDNAKNTVYLQMNSLKPEDTAVYDCNASNYFVLINDPDAAPWLYDYWGHGTQVTVSS	low polyreactivity
QVQLVESGGGLVQAGGSLRLSCAASGSILGYYAMGWYRQAPGKERELVAAISWSGGRTYYADSVKGRFTISRDNAKNTVYLQMNSLKPEDTAVYYCNARWRSGPRAYDYWGQGTQVTVSS	high polyreactivity
QVQLVESGGGLVQAGGSLRLSCAASGSILGYYAMGWYRQAPGKERELVAAITASGGSTYYADSVKGRFTISRDNAKNTVYLQMNSLKPEDTAVYYCNADGGPGYPRAYDYWGQGTQVTVSS	low polyreactivity
QVQLVESGGGLVQAGGSLRLSCAASGSILGYYAMGWYRQAPGKERELVAAITWRGGRTYYADSVKGRFTISRDNAMNTVYLQMNSLKPEDTAVYYCAKVPSGYKGYDYWGQGTQVTVSS	high polyreactivity
QVQLVESGGGLVQAGGSLRLSCAASGSILKGYAMGWYRQAPGKERELVAAISGSGGSTHYADSVKGRFTISRDNAKNTVYLQMNSLKPEDTAVYYCAAAYKWTYYWGQGTQVTVSS	high polyreactivity
QVQLVESGGGLVQAGGSLRLSCAASGSILKYYAMGWYRQAPGKERELVAAISSGGSTYYADSVKGRFTISRDNAKNTVYLQMNSLKPEDTAVYYCAAAWYGAKYIVLYDYWGQGTQVTVSS	low polyreactivity
